Test results from patent US8440629B2, “Cyclic receptor-associated protein (RAP) peptides” (Raptor Pharmaceuticals Inc., priority 2007, dated 2013).

T1: LRP2 CR89 Y1042W (WVWR) (Homo sapiens, UniProt P98164, Y1043W)
T1 construct: two CR pairs from LRP2 (CR89, CR3435); made in house; host or cells: E. coli BL21(DE3) CodonPlus-RIPL, pET30(+)a
T1 sequence (P98164 1025-1102 Y1043W): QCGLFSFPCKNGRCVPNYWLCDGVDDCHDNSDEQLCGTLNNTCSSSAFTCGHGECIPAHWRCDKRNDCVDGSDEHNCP

T2: LRP2 CR89 V1047D R1088D (YDWD) (Homo sapiens, UniProt P98164, R1089D/V1048D)
T2 construct: two CR pairs from LRP2 (CR89, CR3435); made in house; host or cells: E. coli BL21(DE3) CodonPlus-RIPL, pET30(+)a
T2 sequence (P98164 1022-1105 V1048D/R1089D limits assumed): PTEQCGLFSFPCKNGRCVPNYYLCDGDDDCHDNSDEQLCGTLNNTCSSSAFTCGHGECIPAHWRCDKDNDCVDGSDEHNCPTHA

T3: LRP2 CR89 V1047D (YDWR) (Homo sapiens, UniProt P98164, V1048D)
T3 construct: two CR pairs from LRP2 (CR89, CR3435); made in house; host or cells: E. coli BL21(DE3) CodonPlus-RIPL, pET30(+)a
T3 sequence (P98164 1022-1105 V1048D limits assumed): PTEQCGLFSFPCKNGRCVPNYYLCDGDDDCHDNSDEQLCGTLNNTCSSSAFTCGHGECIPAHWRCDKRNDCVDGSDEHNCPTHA


Columns and labels:
[1] = system: CR proteins; experiment: Solid phase binding assay in presence of 10 mM EGTA; parameters: species or system human
Procedure: (§1) Purified, refolded CR protein (1 μg) was bound to Nunc Maxisorp™ 96-well plates in TBS pH 8 supplemented with 5 mM CaCl2 (TBSC) overnight at 4° C. Wells were washed with TBSC and then blocked with TBSC containing 2% bovine serum albumin (BSA). RAP ligands were then incubated with the immobilized receptor at a range of concentrations for 2 hours in the above blocking buffer supplemented with 0.05% Tween-20 at room temperature. Control wells contained no added ligand. As an additional control, to determine whether the absence of calcium affected binding, 10 mM EGTA was included in the incubation medium for some samples. Wells were washed with TBSTC and bound ligands detected with polyclonal anti-RAP (BP41/42, 1:1,000, BioMarin). Excess primary antibody was removed and wells washed before incubation with the secondary antibody, HRP-conjugated goat anti rabbit IgG (Bio-Rad). After washing, TMB substrate solutions (Bio-Rad) were added to detect HRP. Color development was stopped with 1N HCl. Absorption at 450 nm was measured with a microplate spectrophotometer (Molecular Devices). Data were plotted and Kd values derived by non-linear regression with the assumption of single-site binding (GraphPad Prism).
Next, the binding of RAP d3 and MegaRAP1 d3 proteins to LRP1 CR3-5 and LRP2 CR89 was assessed. […]

[2] = target: T1, LRP2 CR89 Y1042W (WVWR); experiment: Solid phase binding assay, LRP2 CR89 mutant
Description: (§2) Each amplified fragment was sequentially digested with BamHI and HindIII and then ligated into similarly digested pET30(+)a. The resulting plasmids encode proteins consisting of N-terminal hexahistidine and S-peptides fused to the CR fragment. Ligation reactions were transformed into XL-Blue MRF′ (Stratagene) by electroporation and plasmids isolated from single colonies. Three mutations, […], V1047D and R1088D, were introduced into the LRP2 CR89 expression plasmid both singly and in combination using Stratagene QuikChange II XL reagents and the primers: […]
as §1
(§3) One premise of this work was that amino acids at A, C, A′ and C′ within the calcium-binding loops of a CR pair were key determinants of binding affinity for RAP and would be similarly important for binding of RAP variants. To test this idea, mutant LRP2 CR89 were prepared in which the native, non-canonical residues at these positions were sequentially substituted with the non-native, canonical residues. As defined above, the A, C, A′, C′ string for LRP2 CR89 is YVWR. Mutants included LRP2 CR89 Y1042W (WVWR), LRP2 CR89 V1047D (YDWR), LRP2 CR89 R1088D (YVWD), LRP2 CR89 V1047D R1088D (YDWD), LRP2 CR89 Y1042W V1047D R1088D (WDWD), LRP2 CR89 Y1042W V1047D (WDWR), LRP2 CR89 Y1042W R1088D (WVWD). Binding to both RAP d3 and MegaRAP1 d3 were measured for each LRP2 CR89 mutant by solid-phase assay. Only the YVWD mutant retained significant binding to MegaRAP1 d3, with an approximate 2-fold loss of affinity relative to LRP2 CR89 (FIG. 6 and Table 3). […] The A′ position in LRP2 CR89 is a tryptophan, the canonical residue for wild-type RAP d3 binding, and was not mutated in our studies.

[3] = target: T4, LRP2 CR89 Y1042W V1047D (WDWR) (Homo sapiens, UniProt P98164, V1048D/Y1043W); experiment: Solid phase binding assay, LRP2 CR89 mutant
T4 construct: two CR pairs from LRP2 (CR89, CR3435); made in house; host or cells: E. coli BL21(DE3) CodonPlus-RIPL, pET30(+)a
T4 sequence (P98164 1025-1102 Y1043W/V1048D): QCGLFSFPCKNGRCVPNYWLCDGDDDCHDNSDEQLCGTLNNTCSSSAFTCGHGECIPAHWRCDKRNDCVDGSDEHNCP
Description: as §2, §1, §3

[4] = target: T2, LRP2 CR89 V1047D R1088D (YDWD); experiment: Solid phase binding assay, LRP2 CR89 mutant
Description: as §2, §1, §3

[5] = target: T5, LRP2 CR89 R1088D (YVWD) (Homo sapiens, UniProt P98164, R1089D); experiment: Solid phase binding assay, LRP2 CR89 mutant
T5 construct: two CR pairs from LRP2 (CR89, CR3435); made in house; host or cells: E. coli BL21(DE3) CodonPlus-RIPL, pET30(+)a
T5 sequence (P98164 1022-1105 R1089D limits assumed): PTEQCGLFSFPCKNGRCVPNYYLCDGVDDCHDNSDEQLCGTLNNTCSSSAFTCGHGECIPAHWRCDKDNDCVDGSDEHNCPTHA
Description: as §2, §1, §3

[6] = target: T3, LRP2 CR89 V1047D (YDWR); experiment: Solid phase binding assay, LRP2 CR89 mutant
Description: as §2, §1, §3

Row | Molecule | effect of 10 mM EGTA on binding to CR proteins [1] | binding (in words) [2] | binding (in words) [3] | binding (in words) [4] | loss of affinity relative to LRP2 CR89 [5] | binding (in words) [6]
1 | RAP d3: third domain of human RAP, amino acids 201-319 of mature RAP, bacterially expressed with hexahistidine and S-peptide tags (SEQ ID NO: 92) (protein, listed as Homo sapiens, hexahistidine and S-peptide tags) LDRLRRVSHQGYSTEAEFEEPRVIDLWDLEQSANLTDKELEAFREELKHFEAKIEKHNHYQKQLEIAHEKLRHAESVGDGERVSRSREKHALLEGRTKELGYTVKKHLQDLSGRISRAR | prevented binding | – | – | – | – | –
2 | MegaRAP1 d3: d3 of RAP variant selected on LRP2 CR89: S213T, E217K, H249Y, E251K, K256A, K270E (SEQ ID NO: 93) (protein, listed as Homo sapiens) LDRLRRVSHQGYSTEAEFEEPRVIDLWDLEQSANLTDKELEAFREELKHFKAKIEAHNHYQKQLEIAHEDLRHAESVGDGERVSRSREKHALLEGRTKELGYTVKKHLQDLSGRISRAR | prevented binding | prevent binding | failed to bind measurably | failed to bind measurably | ~2 fold | failed to bind measurably
